Assay results published in paper PMC12315501 (2025).

Target: recombinant NbRab‐G3c protein (Nicotiana benthamiana)
Test: ITC

B1: recombinant Pi17063 protein (natural protein)
chain: ASADSNERLVRAVYSTVRSRDLATDDGPKHTKRFLRGESSKIVNLKQEEGVFEERKGVSQKLTKALQAIKARYLKWEQKVLVPGFKKMAEKGVTYSELRDTFRVRMMNSGRWGTPSGFKRYARLYSEWLHRTGRSHLAK
Kd: 1480 nM
